This note sets out measurements from paper PMC6126186.

The experiment addresses exonuclease domain from the DNA repair protein WRN. The experiment is described as follows: SEC-MALS; protein concentrated (10x and 20x) in a mixture of 50 mM phosphate and 1% sucrose; A280 and MALS across the elution peak. On the technique in general: SEC sorts molecules by how far they enter the pores of the column.

Sequence of exonuclease domain from the DNA repair protein WRN (Q14191 2-1432): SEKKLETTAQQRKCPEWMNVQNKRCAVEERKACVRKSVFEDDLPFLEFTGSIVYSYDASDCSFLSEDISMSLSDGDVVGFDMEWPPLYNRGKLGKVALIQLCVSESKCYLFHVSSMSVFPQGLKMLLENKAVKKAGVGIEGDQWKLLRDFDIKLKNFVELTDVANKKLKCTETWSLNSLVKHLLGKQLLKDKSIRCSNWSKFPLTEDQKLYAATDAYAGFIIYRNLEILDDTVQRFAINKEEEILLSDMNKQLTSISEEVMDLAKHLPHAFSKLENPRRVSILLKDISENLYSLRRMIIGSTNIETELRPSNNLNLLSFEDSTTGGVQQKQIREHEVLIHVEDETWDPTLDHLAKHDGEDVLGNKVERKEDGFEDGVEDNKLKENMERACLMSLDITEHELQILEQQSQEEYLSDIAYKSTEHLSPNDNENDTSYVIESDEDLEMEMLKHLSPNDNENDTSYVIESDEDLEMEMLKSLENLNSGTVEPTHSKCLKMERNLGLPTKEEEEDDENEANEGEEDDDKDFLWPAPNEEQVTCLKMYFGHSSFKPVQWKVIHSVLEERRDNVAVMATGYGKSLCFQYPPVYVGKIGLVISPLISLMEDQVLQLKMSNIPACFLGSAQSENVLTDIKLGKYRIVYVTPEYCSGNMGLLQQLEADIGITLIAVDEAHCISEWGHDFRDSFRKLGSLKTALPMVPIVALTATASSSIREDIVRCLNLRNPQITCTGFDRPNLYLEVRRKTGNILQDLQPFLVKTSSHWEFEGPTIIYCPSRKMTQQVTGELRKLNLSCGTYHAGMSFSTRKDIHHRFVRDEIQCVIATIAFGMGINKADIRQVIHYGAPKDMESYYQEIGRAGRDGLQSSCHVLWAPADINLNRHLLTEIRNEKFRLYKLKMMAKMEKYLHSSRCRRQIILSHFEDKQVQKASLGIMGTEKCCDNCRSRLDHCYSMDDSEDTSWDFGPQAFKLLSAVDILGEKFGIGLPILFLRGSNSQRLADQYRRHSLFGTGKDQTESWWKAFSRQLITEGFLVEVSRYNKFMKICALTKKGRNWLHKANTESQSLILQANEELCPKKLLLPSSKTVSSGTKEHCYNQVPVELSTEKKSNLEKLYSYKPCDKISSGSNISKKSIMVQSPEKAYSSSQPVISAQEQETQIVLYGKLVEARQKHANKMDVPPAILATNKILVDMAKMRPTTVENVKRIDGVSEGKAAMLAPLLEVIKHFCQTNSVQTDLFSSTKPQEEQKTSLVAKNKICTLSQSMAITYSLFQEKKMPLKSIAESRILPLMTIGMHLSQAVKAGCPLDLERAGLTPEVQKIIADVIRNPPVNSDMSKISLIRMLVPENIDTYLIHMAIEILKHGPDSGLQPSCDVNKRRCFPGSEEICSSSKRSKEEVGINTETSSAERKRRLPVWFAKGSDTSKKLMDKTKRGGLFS

What is called stoichiometry N is a count of units in the complex or per binding partner. On to “exonuclease domain from the DNA repair protein WRN (domain or fragment)”, for which the stoichiometry N is 2.
